According to patent publication US20190077860A1 (EISAI R AND D MANAGEMENT, published 2019):
Substitutions are numbered along the chain they refer to.

B1: humanized antibody No. 139 (antibody, human IgG2)
heavy: QVQLVQSGSELKKPGASVKVSCKASGYTFTDYSMHWVRQAPGQGLEWMGWINTETGEPTYAQGFTGRFVFSLDTSVSTAYLQISSLKAEDTAVYYCARIPLYYYGSRYWYFDVWGQGTTVTVSSASTKGPSVFPLAPSSRSTSESTAALGCLVKDYFPEPVTVSWNSGALTSGVHTFPAVLQSSGLYSLSSVVTVPSSNFGTQTYTCNVDHKPSNTKVDKTVERKSCVECPPCPAPPAAAPSVFLFPPKPKDTLMISRTPEVTCVVVDVSHEDPEVQFNWYVDGVEVHNAKTKPREEQFNSTFRVVSVLTVVHQDWLNGKEYKCKVSNKGLPAPIEKTISKTKGQPREPQVYTLPPSREEMTKNQVSLTCLVKGFYPSDIAVEWESNGQPENNYKTTPPMLDSDGSFFLYSKLTVDKSRWQQGNVFSCSVMHEALHNHYTQKSLSLSPG
light: DIQMTQSPSSLSASVGDRVTITCRASENIYRNLAWYQQKPGKAPKLLVYAATNLADGVPSRFSGSGSGTDYTLTISSLQPEDFATYYCQHFWGTPWTFGQGTKVEIKRTVAAPSVFIFPPSDEQLKSGTASVVCLLNNFYPREAKVQWKVDNALQSGNSQESVTEQDSKDSTYSLSSTLTLSKADYEKHKVYACEVTHQGLSSPVTKSFNRGEC
notes: human Ig kappa; also called L1-4/HA1
B2: humanized antibody No. 141 (antibody, human IgG2)
heavy: B1 heavy with Q62D, G63D, T65K
light: B1 light
notes: human Ig kappa; also called L1-4/HK1
B3: humanized antibody No. 142 (antibody, human IgG2)
heavy: B1 heavy with E46K, Q62D, G63D, T65K
light: B1 light
notes: human Ig kappa; also called L1-4/HK2
B4: humanized antibody No. 143 (antibody, human IgG2)
heavy: B1 heavy with V2I, E46K, Q62D, G63D, T65K
light: B1 light
notes: human Ig kappa; also called L1-4/HK4
B5: humanized antibody No. 144 (antibody, human IgG2)
heavy: B1 heavy with Q62D, G63D, T65K
light: B1 light with K45Q, V48L
notes: human Ig kappa; also called L1-6/HK1
B6: humanized antibody No. 145 (antibody, human IgG2)
heavy: B1 heavy with E46K, Q62D, G63D, T65K
light: B1 light with V48L, P80S
notes: human Ig kappa; also called L1-5/HK2
B7: humanized antibody No. 151 (antibody, human IgG2)
heavy: B1 heavy with V2I, E46K
light: B1 light with V48L, P80S
notes: human Ig kappa; also called L1-5/HA4
B8: humanized antibody No. 152 (antibody, human IgG2)
heavy: B1 heavy
light: B1 light with V48L, P80S
notes: human Ig kappa; also called L1-5/HA1
B9: humanized antibody No. 153 (antibody, human IgG2)
heavy: B1 heavy with E46K
light: B1 light with V48L, P80S
notes: human Ig kappa; also called L1-5/HA2
B10: humanized antibody No. 154 (antibody, human IgG2)
heavy: B1 heavy with Q62D, G63D, T65K
light: B1 light with V48L, P80S
notes: human Ig kappa; also called L1-5/HK1
B11: humanized antibody No. 155 (antibody, human IgG2)
heavy: B1 heavy with V2I, E46K, Q62D, G63D, T65K
light: B1 light with V48L, P80S
notes: human Ig kappa; also called L1-5/HK4
B12: humanized antibody No. 156 (antibody, human IgG2)
heavy: B1 heavy with V2I, E46K
light: B1 light with K45Q, V48L
notes: human Ig kappa; also called L1-6/HA4
B13: humanized antibody No. 157 (antibody, human IgG2)
heavy: B1 heavy
light: B1 light with K45Q, V48L
notes: human Ig kappa; also called L1-6/HA1
B14: humanized antibody No. 158 (antibody, human IgG2)
heavy: B1 heavy with E46K
light: B1 light with K45Q, V48L
notes: human Ig kappa; also called L1-6/HA2
B15: humanized antibody No. 159 (antibody, human IgG2)
heavy: B1 heavy with E46K, Q62D, G63D, T65K
light: B1 light with K45Q, V48L
notes: human Ig kappa; also called L1-6/HK2
B16: humanized antibody No. 160 (antibody, human IgG2)
heavy: B1 heavy with V2I, E46K, Q62D, G63D, T65K
light: B1 light with K45Q, V48L
notes: human Ig kappa; also called L1-6/HK4
B17: humanized antibody No. 134 (antibody, human IgG2)
heavy: B1 heavy with E46K
light: EIVMTQSPATLSVSPGERATLSCRASENIYRNLAWYQQKPGQSPRLLIYAATNLADGIPARFSGSGSGTEYTLTISSLQSEDFAVYYCQHFWGTPWTFGQGTKVEIKRTVAAPSVFIFPPSDEQLKSGTASVVCLLNNFYPREAKVQWKVDNALQSGNSQESVTEQDSKDSTYSLSSTLTLSKADYEKHKVYACEVTHQGLSSPVTKSFNRGEC
notes: human Ig kappa; also called L2-4/HA2
B18: humanized antibody No. 132 (antibody, human IgG2)
heavy: B1 heavy with V2I, E46K
light: B17 light
notes: human Ig kappa; also called L2-4/HA4
B19: humanized antibody No. 133 (antibody, human IgG2)
heavy: B1 heavy
light: B17 light
notes: human Ig kappa; also called L2-4/HA1
B20: humanized antibody No. 135 (antibody, human IgG2)
heavy: B1 heavy with Q62D, G63D, T65K
light: B17 light
notes: human Ig kappa; also called L2-4/HK1
B21: humanized antibody No. 136 (antibody, human IgG2)
heavy: B1 heavy with E46K, Q62D, G63D, T65K
light: B17 light
notes: human Ig kappa; also called L2-4/HK2

Assays:
Experiment in all cases: ELISA
[1] = target: T1, human EphB2 extracellular region-SEAP-His protein (human, UniProt P29323 19-543)
T1 construct: extracellular domain; also called hEphB2-SEAP-His
T1 sequence (looked up): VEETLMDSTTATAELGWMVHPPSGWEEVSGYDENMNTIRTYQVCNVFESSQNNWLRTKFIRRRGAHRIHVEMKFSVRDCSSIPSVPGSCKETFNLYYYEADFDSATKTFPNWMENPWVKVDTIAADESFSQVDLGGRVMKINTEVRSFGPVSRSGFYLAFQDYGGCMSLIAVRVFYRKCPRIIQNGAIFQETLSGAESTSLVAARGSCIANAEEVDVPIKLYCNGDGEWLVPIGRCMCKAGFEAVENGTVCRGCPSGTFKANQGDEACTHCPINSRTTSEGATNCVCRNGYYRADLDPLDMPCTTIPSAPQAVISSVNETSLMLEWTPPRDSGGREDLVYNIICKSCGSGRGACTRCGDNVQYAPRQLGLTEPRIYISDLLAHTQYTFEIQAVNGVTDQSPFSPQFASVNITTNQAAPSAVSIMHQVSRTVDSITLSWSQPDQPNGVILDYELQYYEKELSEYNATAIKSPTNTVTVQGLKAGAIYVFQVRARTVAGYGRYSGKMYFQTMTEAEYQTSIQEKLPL

[2] = target: T2, human EphA3 extracellular region-SEAP-His protein (human, UniProt P29320 21-541)
T2 construct: extracellular domain; also called hEphA3-SEAP-His
T2 sequence (looked up): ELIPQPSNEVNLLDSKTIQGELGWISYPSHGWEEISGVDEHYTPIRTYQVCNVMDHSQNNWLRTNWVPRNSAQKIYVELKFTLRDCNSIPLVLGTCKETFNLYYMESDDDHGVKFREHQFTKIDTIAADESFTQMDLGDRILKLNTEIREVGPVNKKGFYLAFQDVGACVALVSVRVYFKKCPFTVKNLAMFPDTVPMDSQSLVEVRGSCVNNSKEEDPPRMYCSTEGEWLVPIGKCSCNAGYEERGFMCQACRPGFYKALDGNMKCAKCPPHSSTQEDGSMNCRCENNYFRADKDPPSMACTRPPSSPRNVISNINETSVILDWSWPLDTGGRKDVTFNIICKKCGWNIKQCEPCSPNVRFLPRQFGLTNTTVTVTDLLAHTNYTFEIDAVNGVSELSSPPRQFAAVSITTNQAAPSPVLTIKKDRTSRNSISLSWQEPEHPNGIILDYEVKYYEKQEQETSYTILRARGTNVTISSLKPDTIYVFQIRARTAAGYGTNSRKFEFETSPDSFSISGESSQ

[3] = target: T3, human EphA8 extracellular region-SEAP-His protein (human, UniProt P29322 28-542)
T3 construct: extracellular domain; also called hEphA8-SEAP-His
T3 sequence (looked up): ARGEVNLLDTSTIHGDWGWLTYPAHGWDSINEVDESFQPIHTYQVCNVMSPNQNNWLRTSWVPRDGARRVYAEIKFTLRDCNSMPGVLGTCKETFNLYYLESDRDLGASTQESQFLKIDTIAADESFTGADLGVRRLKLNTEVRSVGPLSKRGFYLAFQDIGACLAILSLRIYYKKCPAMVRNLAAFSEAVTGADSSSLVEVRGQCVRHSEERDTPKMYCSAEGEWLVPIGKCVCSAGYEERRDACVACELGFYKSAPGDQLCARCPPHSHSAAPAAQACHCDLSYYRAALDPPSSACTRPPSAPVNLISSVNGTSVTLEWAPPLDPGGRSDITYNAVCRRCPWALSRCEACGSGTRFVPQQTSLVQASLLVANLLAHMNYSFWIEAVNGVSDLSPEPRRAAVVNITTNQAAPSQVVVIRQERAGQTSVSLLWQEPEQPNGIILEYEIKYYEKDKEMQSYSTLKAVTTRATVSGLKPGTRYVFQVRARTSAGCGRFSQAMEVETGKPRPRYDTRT

| Binder | A450 as % of hEphA4-SEAP-His [1] [%] | A450 as % of hEphA4-SEAP-His [2] [%] | A450 as % of hEphA4-SEAP-His [3] [%] |
| --- | --- | --- | --- |
| B1 | 5.7 | 5.9 | 6 |
| B2 | 5.2 | 5.3 | 5.5 |
| B3 | 5.6 | 5.5 | 5.7 |
| B4 | 5.8 | 5.6 | 6 |
| B5 | 5.7 | 5.7 | 5.8 |
| B6 | 6.7 | 6.6 | 6.6 |
| B7 | 7 | 6.9 | 6.9 |
| B8 | 5.8 | 5.8 | 6 |
| B9 | 5.9 | 6.1 | 6.1 |
| B10 | 6.2 | 6.2 | 5.5 |
| B11 | 5.5 | 5.6 | 5.5 |
| B12 | 5.5 | 5.7 | 5.5 |
| B13 | 6.2 | 6.4 | 6 |
| B14 | 6.3 | 6.5 | 6.4 |
| B15 | 5.4 | 5.4 | 5.5 |
| B16 | 6.2 | 6.2 | 5.4 |
| B17 | 5.1 | 5 | 5.7 |
| B18 | 4.7 | 4.8 | 4.7 |
| B19 | 4.6 | 5 | 4.7 |
| B20 | 5 | 5 | 5 |
| B21 | 5.3 | 5.2 | 5.4 |
